Where two headings read alike, the source gives them in different places. Blank lines part the entries; values can stand above or below the binder they belong to.
What was measured:
[1] = biological target: T1, 4H796-bN; test: two-hybrid library CCNG1;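 note: natural log of median RNA to DNA barcode read ratio; higher means stronger binding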
T1 chain: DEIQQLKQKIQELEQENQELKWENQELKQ

[2] = biological target: T2, 4H932-bN; test: two-hybrid library CCNG1;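 note: natural log of median RNA to DNA barcode read ratio; higher means stronger binding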
T2 chain: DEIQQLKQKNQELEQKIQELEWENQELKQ

[3] = biological target: T3, 4H949-bN; test: two-hybrid library CCNG1;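 note: natural log of median RNA to DNA barcode read ratio; higher means stronger binding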
T3 chain: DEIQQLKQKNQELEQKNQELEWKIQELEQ

[4] = biological target: T4, 4H730-bN; test: two-hybrid library CCNG1;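 note: natural log of median RNA to DNA barcode read ratio; higher means stronger binding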
T4 chain: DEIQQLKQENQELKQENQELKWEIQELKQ

[5] = biological target: T5, 4H796-bH; test: two-hybrid library CCNG1;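 note: natural log of median RNA to DNA barcode read ratio; higher means stronger binding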
T5 chain: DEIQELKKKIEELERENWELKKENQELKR

[6] = biological target: T6, 4H932-bH; test: two-hybrid library CCNG1;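 note: natural log of median RNA to DNA barcode read ratio; higher means stronger binding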
T6 chain: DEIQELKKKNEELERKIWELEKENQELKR

[7] = biological target: T7, 4H949-bH; test: two-hybrid library CCNG1
T7 chain: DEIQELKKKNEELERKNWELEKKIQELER

[8] = biological target: T8, P9; test: two-hybrid library CC1
T8 chain: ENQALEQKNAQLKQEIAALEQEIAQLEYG

[9] = biological target: T9, 4H895-AA; test: two-hybrid library CCmax
T9 chain: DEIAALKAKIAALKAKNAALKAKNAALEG

[10] = biological target: T10, 4H_APH; test: two-hybrid library CCmax; conditions: mean of both orientations
T10 chain: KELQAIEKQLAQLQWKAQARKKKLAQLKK

[11] = biological target: T11, 4H_BCR; test: two-hybrid library CCmax; conditions: mean of both orientations
T11 chain: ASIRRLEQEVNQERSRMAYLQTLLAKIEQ

[12] = biological target: 4H_GCN4; test: two-hybrid library CCmax
Chain of 4H_GCN4 (chain, as listed by the source): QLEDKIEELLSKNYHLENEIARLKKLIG

[13] = biological target: GCN2_T; test: two-hybrid library CCmax; conditions: mean of both orientations
[14] = biological target: T12, 4H4033-AA; test: two-hybrid library CCmax
T12 chain: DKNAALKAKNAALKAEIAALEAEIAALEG

[15] = biological target: T13, 4H481-AA; test: two-hybrid library CCmax; conditions: mean of both orientations
T13 chain: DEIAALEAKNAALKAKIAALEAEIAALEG

[16] = biological target: T14, 4H55-AA; test: two-hybrid library CCmax; conditions: mean of both orientations
T14 chain: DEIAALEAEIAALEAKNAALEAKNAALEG

[17] = biological target: T15, 4H662-AA; test: two-hybrid library CCmax; conditions: mean of both orientations
T15 chain: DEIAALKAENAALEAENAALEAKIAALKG

[18] = biological target: T16, 4H454-bH; test: two-hybrid library CCNG1
T16 chain: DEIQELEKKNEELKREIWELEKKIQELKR

[19] = biological target: T17, 4H568-bH; test: two-hybrid library CCNG1
T17 chain: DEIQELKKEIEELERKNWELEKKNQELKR

[20] = biological target: T18, 4H607-bH; test: two-hybrid library CCNG1
T18 chain: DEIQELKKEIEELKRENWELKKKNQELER

[21] = biological target: T19, 4H687-bH; test: two-hybrid library CCNG1
T19 chain: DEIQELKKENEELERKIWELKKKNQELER

[22] = biological target: T20, 4H717-bH; test: two-hybrid library CCNG1
T20 chain: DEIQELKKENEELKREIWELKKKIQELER

[23] = biological target: T21, 4H72-bH; test: two-hybrid library CCNG1
T21 chain: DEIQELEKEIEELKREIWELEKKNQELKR

[24] = biological target: T22, 4H754-bH; test: two-hybrid library CCNG1
T22 chain: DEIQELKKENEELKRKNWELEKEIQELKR

[25] = biological target: T23, 4H797-bH; test: two-hybrid library CCNG1
T23 chain: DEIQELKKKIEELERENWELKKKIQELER

[26] = biological target: T24, 4H883-bH; test: two-hybrid library CCNG1
T24 chain: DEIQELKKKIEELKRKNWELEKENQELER

[27] = biological target: T25, 4H908-bH; test: two-hybrid library CCNG1
T25 chain: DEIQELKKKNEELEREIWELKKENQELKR

[28] = biological target: T26, 4H918-bH; test: two-hybrid library CCNG1
T26 chain: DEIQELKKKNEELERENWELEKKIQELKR

[29] = biological target: T27, 4H953-bH; test: two-hybrid library CCNG1
T27 chain: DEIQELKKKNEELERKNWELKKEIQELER

[30] = biological target: T28, 4H967-bH; test: two-hybrid library CCNG1
T28 chain: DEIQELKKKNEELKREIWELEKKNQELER

[31] = biological target: T29, 4H3102-AA; test: two-hybrid library CCmax
T29 chain: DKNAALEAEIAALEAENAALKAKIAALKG

[32] = biological target: T30, 4H3121-AA; test: two-hybrid library CCmax
T30 chain: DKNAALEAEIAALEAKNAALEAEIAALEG

[33] = biological target: T31, 4H3417-AA; test: two-hybrid library CCmax; conditions: mean of both orientations
T31 chain: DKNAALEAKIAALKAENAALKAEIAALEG

[34] = biological target: T32, 4H3446-AA; test: two-hybrid library CCmax; conditions: mean of both orientations
T32 chain: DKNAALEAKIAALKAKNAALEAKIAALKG

[35] = biological target: T33, 4H3591-AA; test: two-hybrid library CCmax; conditions: mean of both orientations
T33 chain: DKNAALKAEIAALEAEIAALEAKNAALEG

[36] = biological target: T34, 4H3628-AA; test: two-hybrid library CCmax; conditions: mean of both orientations
T34 chain: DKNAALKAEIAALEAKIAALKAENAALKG

[37] = biological target: T35, 4H3666-AA; test: two-hybrid library CCmax; conditions: mean of both orientations
T35 chain: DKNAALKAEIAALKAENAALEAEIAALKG

[38] = biological target: T36, 4H3709-AA; test: two-hybrid library CCmax; conditions: mean of both orientations
T36 chain: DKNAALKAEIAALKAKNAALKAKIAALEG

[39] = biological target: T37, 4H391-AA; test: two-hybrid library CCmax; conditions: mean of both orientations
T37 chain: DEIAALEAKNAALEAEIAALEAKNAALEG

[40] = biological target: T38, 4H3920-AA; test: two-hybrid library CCmax; conditions: mean of both orientations
T38 chain: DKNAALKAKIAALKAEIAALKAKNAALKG

[41] = biological target: T39, 4H3939-AA; test: two-hybrid library CCmax; conditions: mean of both orientations
T39 chain: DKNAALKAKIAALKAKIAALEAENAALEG

[42] = biological target: T40, 4H428-AA; test: two-hybrid library CCmax; conditions: mean of both orientations
T40 chain: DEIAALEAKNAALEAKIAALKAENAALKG

[43] = biological target: T41, 4H478-AA; test: two-hybrid library CCmax; conditions: mean of both orientations
T41 chain: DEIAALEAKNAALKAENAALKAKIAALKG

[44] = biological target: T42, 4H497-AA; test: two-hybrid library CCmax; conditions: mean of both orientations
T42 chain: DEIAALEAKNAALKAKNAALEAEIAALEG

[45] = biological target: T43, 4H656-AA; test: two-hybrid library CCmax; conditions: mean of both orientations
T43 chain: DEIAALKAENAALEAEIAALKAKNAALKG

[46] = biological target: T44, 4H675-AA; test: two-hybrid library CCmax
T44 chain: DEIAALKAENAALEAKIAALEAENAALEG

[47] = biological target: T45, 4H971-AA; test: two-hybrid library CCmax; conditions: mean of both orientations
T45 chain: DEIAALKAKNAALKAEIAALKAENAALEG

[48] = biological target: T46, 4H619-bN; test: two-hybrid library CCNG1
T46 chain: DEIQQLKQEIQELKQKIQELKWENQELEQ

[49] = biological target: T47, 4H850-bN; test: two-hybrid library CCNG1
T47 chain: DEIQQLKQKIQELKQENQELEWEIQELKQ

[50] = biological target: T48, 4H906-bN; test: two-hybrid library CCNG1
T48 chain: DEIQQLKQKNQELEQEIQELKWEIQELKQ

[51] = biological target: T49, 4H3922-AA; test: two-hybrid library CCmax
T49 chain: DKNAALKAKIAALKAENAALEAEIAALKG

[52] = biological target: T50, 4H730-bH; test: two-hybrid library CCNG1
T50 chain: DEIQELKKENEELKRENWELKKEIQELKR

interaction score [1]: 1.8
interaction score [2]: 0.298
interaction score [3]: -0.619
Binder: DEIQQLKQKIQELEQENQELKWENQELKQ [4H796-bN]

interaction score [4]: 1.55
interaction score [1]: -1.29
interaction score [2]: -0.353
interaction score [3]: -0.718
Binder: DEIQQLKQENQELKQENQELKWEIQELKQ [4H730-bN]

interaction score [5]: 1.25
interaction score [6]: -0.89
interaction score [7]: -0.00426
Binder: DEIQELKKKIEELERENWELKKENQELKR [4H796-bH]

Binder: ENQALEQKNAQLKQEIAALEQEIAQLEYG [P9]
interaction score [8]: -2.32

interaction score [9]: -1.19
interaction score [10]: -1.22
interaction score [11]: -2.06
interaction score [12]: -1.86
interaction score [13]: -1.25
Binder: DEIAALKAKIAALKAKNAALKAKNAALEG [4H895-AA]

interaction score [14]: -1.66
interaction score [15]: -1.15
interaction score [16]: -1.39
interaction score [17]: 1.17
Binder: DKNAALKAKNAALKAEIAALEAEIAALEG [4H4033-AA]

interaction score [18]: 1.6
interaction score [19]: 0.197
interaction score [20]: -1.61
interaction score [21]: 1.81
interaction score [22]: 0.664
interaction score [23]: 0.203
interaction score [24]: 0.236
interaction score [25]: -0.829
interaction score [26]: -1.26
interaction score [27]: -0.536
interaction score [28]: -1.05
interaction score [29]: 1.26
interaction score [30]: 0.69
Binder: DEIQELEKKNEELKREIWELEKKIQELKR [4H454-bH]

interaction score [31]: 1.69
interaction score ([32]; mean of both orientations): -0.0964
interaction score [33]: 2.29
interaction score [34]: 0.0866
interaction score [35]: -1.16
interaction score [36]: -0.57
interaction score [37]: 1.73
interaction score [38]: 1.43
interaction score [39]: -0.9
interaction score [40]: -1.16
interaction score [41]: -1.39
interaction score [42]: 0.651
interaction score [43]: 1.81
interaction score [44]: -1.18
interaction score [45]: 0.534
interaction score ([46]; mean of both orientations): -0.00286
interaction score [47]: -0.422
Binder: DKNAALEAEIAALEAENAALKAKIAALKG [4H3102-AA]

interaction score [48]: 1.24
interaction score [49]: -0.223
interaction score [50]: -0.494
Binder: DEIQQLKQEIQELKQKIQELKWENQELEQ [4H619-bN]

interaction score [51]: -0.436
interaction score ([14]; mean of both orientations): -0.495
interaction score [15]: 1.69
interaction score [16]: -1.32
interaction score [17]: -1.16
Binder: DKNAALKAKIAALKAENAALEAEIAALKG [4H3922-AA]

interaction score [32]: -1.24
interaction score [33]: -1.39
interaction score [34]: 1.8
interaction score [35]: -1.55
interaction score [36]: -1.32
interaction score [37]: -0.746
interaction score [38]: -0.104
interaction score [39]: -1.89
interaction score [40]: -1.06
interaction score [41]: -1.9
interaction score [42]: -0.865
interaction score [43]: -0.966
interaction score [44]: -1.74
interaction score [45]: -1.6
interaction score [46]: -2.08
interaction score [47]: -1.39
Binder: DKNAALEAEIAALEAKNAALEAEIAALEG [4H3121-AA]

interaction score [52]: 1.5
interaction score [5]: -0.301
interaction score [6]: -1.05
interaction score [7]: 0.0896
Binder: DEIQELKKENEELKRENWELKKEIQELKR [4H730-bH]

From paper PMC10397247
